Results: patent US20220332770A1 (UNIVERSITY OF RHODE ISLAND BOARD OF TRUSTEES, published 2022)

B1: FljB-HBc fusion protein, self-assembled into FH VLPs (other)
chain: MDIDPYKEFGASVELLSFLPSDFFPSIRDLLDTASALYREALESPEHCSPHHTALRQAILCWGELMNLATWVGSNLEDPAGGGGSGGGGSAQVINTNSLSLLTQNNLNKSQSALGTAIERLSSGLRINSAKDDAAGQAIANRFTANIKGLTQASRNANDGISIAQTTEGALNEINNNLQRVRELAVQSANSTNSQSDLDSIQAEITQRLNEIDRVSGQTQFNGVKVLAQDNTLTIQVGANDGETIDIDLKQINSQTLGLDSLNVQKAYDVKDTAVTTKAYANNGTTLDVSGLDDAAIKAATGGTNGTASVTGGAVKFDADNNKYFVTIGGFTGADAAKNGDYEVNVATDGTVTLAAGATKTTMPAGATTKTEVQELKDTPAVVSADAKNALIAGGVDATDANGAELVKMSYTDKNGKTIEGGYALKAGDKYYAADYDEATGAIKAKTTSYTAADGTTKTAANQLGGVDGKTEVVTIDGKTYNASKAAGHDFKAQPELAEAAAKTTENPLQKIDAALAQVDALRSDLGAVQNRFNSAITNLGNTVNNLSEARSRIEDSDYATEVSNMSRAQILQQAGTSVLAQANQVPQNVLSLLRGGGGSGGGGSSRELVVSYVNVNMGLKIRQLLWFHISCLTFGRETVLEYLVSFGVWIRTPPAYRPPNAPILSTLPETTVVLEHHHHHH

Columns and labels:
[1] = biological target: murine TLR5 (HEK293 cells co-transfected with murine TLR5 and SEAP reporter gene) (murine) (UniProt Q9JLF7); experiment: cell-based or functional assay
murine TLR5 (HEK293 cells co-transfected with murine TLR5 and SEAP reporter gene) (murine), sequence (Q9JLF7 27-859): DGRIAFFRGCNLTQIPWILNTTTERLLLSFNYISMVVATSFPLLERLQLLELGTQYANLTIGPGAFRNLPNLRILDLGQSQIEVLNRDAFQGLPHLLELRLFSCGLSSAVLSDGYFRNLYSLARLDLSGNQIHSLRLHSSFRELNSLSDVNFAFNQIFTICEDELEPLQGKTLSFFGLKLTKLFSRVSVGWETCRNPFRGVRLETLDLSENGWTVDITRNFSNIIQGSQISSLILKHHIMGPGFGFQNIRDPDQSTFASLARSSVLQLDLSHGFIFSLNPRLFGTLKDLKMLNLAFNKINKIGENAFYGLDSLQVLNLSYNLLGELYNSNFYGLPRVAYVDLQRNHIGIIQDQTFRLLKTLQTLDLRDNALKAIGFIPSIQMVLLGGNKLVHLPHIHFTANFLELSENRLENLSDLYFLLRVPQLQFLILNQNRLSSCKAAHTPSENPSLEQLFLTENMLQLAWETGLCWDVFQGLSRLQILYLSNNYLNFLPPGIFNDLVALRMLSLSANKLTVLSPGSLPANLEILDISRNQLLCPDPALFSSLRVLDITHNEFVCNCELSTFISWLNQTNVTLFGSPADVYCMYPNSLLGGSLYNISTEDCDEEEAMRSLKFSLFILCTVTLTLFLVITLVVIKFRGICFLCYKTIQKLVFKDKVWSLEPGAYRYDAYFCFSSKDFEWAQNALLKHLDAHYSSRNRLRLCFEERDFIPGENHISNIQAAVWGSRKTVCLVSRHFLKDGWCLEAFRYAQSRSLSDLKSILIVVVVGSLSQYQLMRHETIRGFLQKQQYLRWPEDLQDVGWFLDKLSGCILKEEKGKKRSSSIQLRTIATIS

[2] = biological target: murine TLR5 (HEK293 cells co-transfected with murine TLR5 and SEAP reporter gene) (murine, UniProt Q9JLF7 27-859); experiment: cell-based or functional assay
murine TLR5 (HEK293 cells co-transfected with murine TLR5 and SEAP reporter gene), sequence (Q9JLF7 27-859): as above

Row | Molecule | lowest concentration to significantly activate TLR5 (SEAP reporter, OD620nm) [1] [pM] | fold reduction of TLR5 activation ability against FLA-ST [2] [fold] | fold reduction of TLR5 activation ability against FljB [2] [fold]
1 | FLA-ST (ultrapure FliC purified from S. Typhimurium, Invivogen) (from UniProt P06179 2-495) (ligand) | 40 | – | –
2 | Recombinant FljB (phase 2 flagellin of S. Typhimurium strain LT2) (from UniProt P52616 1-506) (ligand) | 8 | – | –
3 | B1 | – | 25 | > 100
